Data set [1] has as its target recombinant p16^INK4A (wild type) (Homo sapiens) (UniProt P42771). Briefly: non-reducing SDS-PAGE.
The data set “co-IP” deals with the molecule itself. Briefly: co-IP.
The target in data set [2] is T1, endogenous p16^INK4A (human (endogenous in HEK293T)), P42771.
T1 chain: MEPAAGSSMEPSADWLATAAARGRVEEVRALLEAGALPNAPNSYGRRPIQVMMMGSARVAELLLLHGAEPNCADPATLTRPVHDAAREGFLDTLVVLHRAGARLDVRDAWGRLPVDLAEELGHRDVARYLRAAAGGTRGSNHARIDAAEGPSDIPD
Briefly: co-IP. The following applies: remark: other sources report otherwise.

We go through three molecules from PMC6812003 (Redox Biology, 2019).

For orientation: stoichiometry N means the number of molecules, sites or subunits per partner or assembly.

In the case of “recombinant p16^INK4A (wild type) (from UniProt P42771 1-156) (natural protein)”, the stoichiometry N in data set [1] worked out at 2.

B1: FLAG-p16^INK4A (wild type) (natural protein, human, UniProt P42771 9-156, looked up)
chain: MEPSADWLATAAARGRVEEVRALLEAGALPNAPNSYGRRPIQVMMMGSARVAELLLLHGAEPNCADPATLTRPVHDAAREGFLDTLVVLHRAGARLDVRDAWGRLPVDLAEELGHRDVARYLRAAAGGTRGSNHARIDAAEGPSDIPD
B1: the “stoichiometry N” value in “co-IP” worked out at 2.

B2: endogenous p16^INK4A, P42771 1-156 (natural protein)
chain: MEPAAGSSMEPSADWLATAAARGRVEEVRALLEAGALPNAPNSYGRRPIQVMMMGSARVAELLLLHGAEPNCADPATLTRPVHDAAREGFLDTLVVLHRAGARLDVRDAWGRLPVDLAEELGHRDVARYLRAAAGGTRGSNHARIDAAEGPSDIPD
The molecule B2 came in with a stoichiometry N in data set [2] of 2.
